From the supplement of paper PMC6757056
± gives the standard deviation of the averaged measurements.

B1: library; a variant is named by its letters at N, in order (parent)
chain: GCUGUCACCGGUGCUUGGUACGUUAUAUUCAGCCGGUCUGAUGAGUCUNNNNNNAGACGAAACAGC

Columns and labels:
(6R,S)-folinic acid [1] = variants of: B1; experiment: FACS-Seq fitted mean relative fluorescence mCherry/BFP without ligand (log10 relative fluorescence); HEK293T overexpressing SLC46A1; higher = higher reporter protein expression; conditions: without (6R,S)-folinic acid; ligand present: no
How it was run: (§1)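 Cells were sorted into 6 bins on the mCherry/BFP ratio after 48 h with or without ligand. These were enriched HEK293T cells transduced by lentivirus with a ribozyme-switch mCherry reporter plus an EF1α-BFP marker. Fluorescence was obtained by fitting a normal distribution to sequencing-derived bin counts. Counts came from MiSeq sequencing of PCR-amplified, barcoded genomic DNA, binned by log10(mCherry/BFP), with means scaled to five spiked-in control ribozymes.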

(6R,S)-folinic acid [2] = variants of: B1; experiment: normalized RNA/DNA level without ligand (relative to sTRSVctl = 100) (log10 (% of sTRSVctl)); HEK293T overexpressing SLC46A1; higher = less ribozyme self-cleavage, higher mRNA level; conditions: without (6R,S)-folinic acid; ligand present: no
Procedure: (§2)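 Hammerhead (sTRSV) ribozyme switch libraries with a ligand aptamer grafted on stem I and a randomized N4-6 loop II, cloned into the 3' UTR of mCherry and transiently transfected into HEK293T cells; RNA-Seq 72 h post transfection with ligand added 1 h before transfection; RNA read count / plasmid DNA read count normalized to the non-cleaving sTRSVctl (x100), log10; sequences with >100 DNA reads. FACS-Seq: lentiviral library sorted into 6 bins after 48 h ligand, log-normal fit mean of mCherry/BFP scaled to controls. Printed sequences are partial switch sequences.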

(6R,S)-folinic acid [3] = variants of: B1; experiment: FACS-Seq fitted mean relative fluorescence mCherry/BFP with ligand (log10 relative fluorescence); HEK293T overexpressing SLC46A1; ligand concentration (+) FACS-Seq: 6 mM; higher = higher reporter protein expression; conditions: with (6R,S)-folinic acid; ligand present: yes
How it was run: as §1

(6R,S)-folinic acid [4] = variants of: B1; experiment: normalized RNA/DNA level with ligand (relative to sTRSVctl = 100) (log10 (% of sTRSVctl)); HEK293T overexpressing SLC46A1; ligand concentration (+) RNA-Seq: 6 mM; higher = less ribozyme self-cleavage, higher mRNA level; conditions: with (6R,S)-folinic acid; ligand present: yes
Procedure: as §2

Row | Variant | FACS-Seq fitted mean (log10) ((6R,S)-folinic acid [1]) | normalized RNA/DNA level without ligand (log10) ((6R,S)-folinic acid [2]) | FACS-Seq fitted mean (log10) ((6R,S)-folinic acid [3]) | normalized RNA/DNA level with ligand (log10) ((6R,S)-folinic acid [4])
1 | GCUGUCACCGGUGCUUGGUACGUUAUAUUCAGCCGGUCUGAUGAGUCUUGAUACAGACGAAACAGC [UGAUAC] | 0.272 ± 0.049 | 1.984 ± 0.019 | 0.128 ± 0.094 | 2 ± 0.044
2 | GCUGUCACCGGUGCUUGGUACGUUAUAUUCAGCCGGUCUGAUGAGUCUUGAUAAAGACGAAACAGC [UGAUAA] | 0.48 ± 0.24 | 1.926 ± 0.019 | 0.632 ± 0.35 | 2.004 ± 0.017
3 | GCUGUCACCGGUGCUUGGUACGUUAUAUUCAGCCGGUCUGAUGAGUCUUGAGUGAGACGAAACAGC [UGAGUG] | 0.376 ± 0.083 | 1.652 ± 0.011 | 0.652 ± 0.081 | 1.93 ± 0.023
4 | GCUGUCACCGGUGCUUGGUACGUUAUAUUCAGCCGGUCUGAUGAGUCUUGAGUAAGACGAAACAGC [UGAGUA] | 0.204 ± 0.015 | 1.911 ± 0.0073 | 0.422 ± 0.1 | 2 ± 0.043
5 | GCUGUCACCGGUGCUUGGUACGUUAUAUUCAGCCGGUCUGAUGAGUCUAGAUAAAGACGAAACAGC [AGAUAA] | 0.0208 ± 0.12 | 1.96 ± 0.006 | 0.14 ± 0.2 | 1.981 ± 0.012
6 | GCUGUCACCGGUGCUUGGUACGUUAUAUUCAGCCGGUCUGAUGAGUCUGGAGCCAGACGAAACAGC [GGAGCC] | 0.129 ± 0.011 | 2.0238 ± 0.0014 | 0.0129 ± 0.069 | 2.026 ± 0.02
7 | GCUGUCACCGGUGCUUGGUACGUUAUAUUCAGCCGGUCUGAUGAGUCUGGAUAAAGACGAAACAGC [GGAUAA] | 0.686 ± 0.051 | 1.9974 ± 0.00055 | 0.655 ± 0.074 | 2.03 ± 0.026
8 | GCUGUCACCGGUGCUUGGUACGUUAUAUUCAGCCGGUCUGAUGAGUCUUGAGAGAGACGAAACAGC [UGAGAG] | 0.384 ± 0.054 | 1.689 ± 0.012 | 0.526 ± 0.022 | 1.92 ± 0.02
9 | GCUGUCACCGGUGCUUGGUACGUUAUAUUCAGCCGGUCUGAUGAGUCUUGAGAUAGACGAAACAGC [UGAGAU] | 0.457 ± 0.23 | 1.83 ± 0.043 | 0.572 ± 0.015 | 1.98 ± 0.041
10 | GCUGUCACCGGUGCUUGGUACGUUAUAUUCAGCCGGUCUGAUGAGUCUUGAGCUAGACGAAACAGC [UGAGCU] | 0.387 ± 0.081 | 2 ± 0.013 | 0.479 ± 0.087 | 2.019 ± 0.012
11 | GCUGUCACCGGUGCUUGGUACGUUAUAUUCAGCCGGUCUGAUGAGUCUUGAGCGAGACGAAACAGC [UGAGCG] | 0.157 ± 0.15 | 1.736 ± 0.012 | 0.218 ± 0.39 | 1.98 ± 0.024
